Reference: publication PMC6650407 (Scientific Reports, 2019)

T1: SyFumC (GST-SyFumC; Synechocystis 6803 fumarase C) (Synechocystis sp. PCC 6803, UniProt Q55674)
T1 construct: gene fumC
T1 sequence (Q55674 1-466): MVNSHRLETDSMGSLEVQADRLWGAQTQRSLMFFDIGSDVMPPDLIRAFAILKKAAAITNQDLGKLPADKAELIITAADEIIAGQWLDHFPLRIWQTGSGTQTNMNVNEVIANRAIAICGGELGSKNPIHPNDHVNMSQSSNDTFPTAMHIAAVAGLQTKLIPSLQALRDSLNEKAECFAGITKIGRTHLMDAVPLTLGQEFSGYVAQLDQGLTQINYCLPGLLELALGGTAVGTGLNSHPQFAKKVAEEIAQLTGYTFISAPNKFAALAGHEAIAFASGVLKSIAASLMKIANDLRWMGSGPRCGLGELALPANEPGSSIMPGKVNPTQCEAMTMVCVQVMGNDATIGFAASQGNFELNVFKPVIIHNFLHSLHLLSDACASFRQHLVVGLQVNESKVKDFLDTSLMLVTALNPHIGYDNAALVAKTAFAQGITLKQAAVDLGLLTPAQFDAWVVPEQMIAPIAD


What was measured:
[1] = molecular target: T1, SyFumC (GST-SyFumC; Synechocystis 6803 fumarase C); assay: absorbance at […] nm, saturation curve; type: biochemical; conditions: 100 mM Tris-HCl pH 7.5, 30 °C, no effector
[2] = molecular target: T2, SyFumC (GST-SyFumC; Synechocystis 6803 fumarase C) (Synechocystis sp. PCC 6803, UniProt Q55674, A314E); assay: absorbance at […] nm, saturation curve; type: biochemical; conditions: 100 mM Tris-HCl pH 7.5, 30 °C, no effector
T2 construct: gene fumC

[3] = molecular target: T1, SyFumC (GST-SyFumC; Synechocystis 6803 fumarase C); assay: inhibition, absorbance at […] nm; type: biochemical; conditions: read-out: % of control activity at 4 mM
[4] = substrate: O=C(O)C[C@H](O)C(=O)O; assay: purified protein; conditions: 100 mM Tris-HCl pH 7.5, 30 °C, no effector

Row | Km [1] [µM] | Km [2] [µM] | remaining activity at 4000 µM [3] [%] | Molecule | Km [4] [µM] | kcat [4] [s⁻¹] | kcat/Km [4] [M⁻¹ s⁻¹]
1 | 244 ± 26 | 179 ± 36 |  | O=C(O)/C=C/C(=O)O [fumarate] |  |  | 
2 |  |  | 45 to 58 | O=C(O)CCC(=O)O [succinate] |  |  | 

Further lines, the molecule ahead of its results:

Row | Molecule | Km [1] [µM] | Km [2] [µM] | remaining activity at 4000 µM [3] [%] | Km [4] [µM] | kcat [4] [s⁻¹] | kcat/Km [4] [M⁻¹ s⁻¹]
3 | SyFumC (GST-SyFumC; Synechocystis 6803 fumarase C) (Synechocystis sp. PCC 6803 substr. Kazusa) (protein) MVNSHRLETDSMGSLEVQADRLWGAQTQRSLMFFDIGSDVMPPDLIRAFAILKKAAAITNQDLGKLPADKAELIITAADEIIAGQWLDHFPLRIWQTGSGTQTNMNVNEVIANRAIAICGGELGSKNPIHPNDHVNMSQSSNDTFPTAMHIAAVAGLQTKLIPSLQALRDSLNEKAECFAGITKIGRTHLMDAVPLTLGQEFSGYVAQLDQGLTQINYCLPGLLELALGGTAVGTGLNSHPQFAKKVAEEIAQLTGYTFISAPNKFAALAGHEAIAFASGVLKSIAASLMKIANDLRWMGSGPRCGLGELALPANEPGSSIMPGKVNPTQCEAMTMVCVQVMGNDATIGFAASQGNFELNVFKPVIIHNFLHSLHLLSDACASFRQHLVVGLQVNESKVKDFLDTSLMLVTALNPHIGYDNAALVAKTAFAQGITLKQAAVDLGLLTPAQFDAWVVPEQMIAPIAD |  |  |  | 478 ± 112 | 42.3 | 90300
4 | SyFumC (GST-SyFumC; Synechocystis 6803 fumarase C) (Synechocystis sp. PCC 6803 substr. Kazusa; A314E) (protein) MVNSHRLETDSMGSLEVQADRLWGAQTQRSLMFFDIGSDVMPPDLIRAFAILKKAAAITNQDLGKLPADKAELIITAADEIIAGQWLDHFPLRIWQTGSGTQTNMNVNEVIANRAIAICGGELGSKNPIHPNDHVNMSQSSNDTFPTAMHIAAVAGLQTKLIPSLQALRDSLNEKAECFAGITKIGRTHLMDAVPLTLGQEFSGYVAQLDQGLTQINYCLPGLLELALGGTAVGTGLNSHPQFAKKVAEEIAQLTGYTFISAPNKFAALAGHEAIAFASGVLKSIAASLMKIANDLRWMGSGPRCGLGELALPENEPGSSIMPGKVNPTQCEAMTMVCVQVMGNDATIGFAASQGNFELNVFKPVIIHNFLHSLHLLSDACASFRQHLVVGLQVNESKVKDFLDTSLMLVTALNPHIGYDNAALVAKTAFAQGITLKQAAVDLGLLTPAQFDAWVVPEQMIAPIAD |  |  |  | 442 ± 20 | 21.6 | 49000
